B1: EEHEE_rd3_1049 (parent)
chain: TTVKLGDIKVTFDNPEKAKKYAQKLAKIYQLTVHVHGDTIHVK

Variants of: B1
Experiment: folding stability dG (cDNA display proteolysis); higher = more stable
Settings: PBS, room temperature

Folding stability dG [kcal/mol]: each site, then its substitutions
L25: G -0.255 | N -0.312 | H 0.021 | K 0.474 | V 1.26 | Q 0.293 | F 0.868 | M 1.55 | P -0.554 | Y 0.832 | S -0.33 | I 1.83 | R 0.324 | T 0.212 | W 1.44 | C 2.11 | A 0.276 | E -0.772 | D -0.607
Q23: L 2.22 | R 1.94 | C 3.24 | F 2.14 | D 1.91 | K 1.87 | H 1.9 | I 2.03 | G 1.06 | V 1.73 | P -0.329 | S 1.58 | W 2.06 | T 1.64 | A 2.1 | N 1.88 | M 2.25 | Y 2.29 | E 2.19
T32: Q 1.87 | D 1.33 | S 1.94 | I 2.01 | A 1.79 | W 1.48 | P 0.612 | K 1.63 | Y 1.69 | N 1.43 | G 1.32 | E 1.82 | V 2.21 | F 1.81 | L 1.6 | R 1.4 | C 2.77 | H 1.6 | M 1.75
A26: R 1.37 | S 1.23 | H 0.547 | L 1.16 | Q 0.896 | P -0.282 | G 0.898 | M 1.23 | T 0.662 | I 1.09 | E 0.645 | K 1.02 | C 2.77 | F 1.11 | D 0.078 | Y 1.01 | W 1.2 | N 0.427 | V 0.862
I28: S 1.05 | E 1.47 | Q 1.88 | R 2.4 | W 2.15 | D 1.08 | V 1.56 | F 2.02 | K 2.48 | H 1.64 | A 1.65 | N 1.01 | L 2.33 | Y 2.14 | C 2.92 | T 1.48 | G 0.349 | M 2.36 | P -0.832
K20: M 2.04 | Y 1.92 | T 1.57 | H 1.67 | I 1.97 | S 1.71 | V 1.78 | G 1.13 | A 2.27 | E 2.06 | C 2.63 | D 1.55 | L 2.08 | R 2.21 | N 1.66 | Q 2.02 | P -0.125 | F 1.8 | W 2.18
K19: A 1.9 | N 1.64 | I 2.54 | S 1.49 | D 0.873 | E 1.47 | P -0.502 | G 0.985 | W 3.16 | V 1.97 | M 3.54 | F 2.93 | R 2.23 | H 2.14 | Y 2.9 | Q 1.89 | C 3.38 | T 1.55 | L 3.31
K24: S 1.57 | R 2.17 | T 1.83 | D 1.36 | L 2.67 | Q 1.86 | H 2.27 | A 1.98 | P -0.36 | M 2.65 | Y 3.04 | F 2.87 | I 2.28 | W 3.42 | N 1.58 | G 1.23 | V 1.96 | E 1.66
A18: S 0.232 | Y 0.624 | K 0.046 | L 0.902 | I 0.682 | W 1.26 | T 0.288 | D -0.113 | V 0.492 | C 2.03 | P -0.013 | N 0.152 | M 0.64 | G 0.641 | F 0.877 | H 0.152 | R 0.343 | Q 0.175 | E -0.325
K27: W 2.05 | H 1.71 | T 1.75 | G 1.37 | P -0.326 | A 2.03 | V 1.61 | E 2.04 | N 1.65 | M 2.01 | Y 2.13 | R 2.27 | F 2.1 | Q 1.94 | C 2.95 | I 1.79 | D 1.79 | L 2.1 | S 1.83
V33: R -0.171 | Q 0.334 | L 2.1 | H 0.305 | N -0.39 | M 1.78 | C 2.12 | W 1.85 | E 0.147 | A 0.869 | F 1.6 | S 0.464 | I 2.37 | T 1.11 | Y 1.54 | P 0.242 | D -0.143 | G 0.145 | K -0.112
K17: Y 1.9 | W 1.93
H34: C 3.12 | I 2.44 | N 1.34 | A 1.9 | K 1.71 | G 0.853 | P -0.084 | F 2.39 | L 2.06 | M 2.08 | S 2.03 | D 1.58 | E 2.46 | V 2.59 | R 1.64 | T 2.12 | Y 2.39 | Q 2.11 | W 2.15
V35: Q 1.78 | P 0.957 | K 1.24 | G 0.496 | D 1.57 | C 2.12 | E 1.56 | H 1.57 | F 2.08 | A 1.34 | I 2.26 | R 1.27 | L 1.7 | N 1.09
Q30: H 2.42 | N 2.58 | Y 1.65 | L 1.48 | K 2.2 | D 2.08 | W 1.71 | G 3.23 | M 1.92 | R 1.98 | F 1.87 | S 2.06 | I 1.28 | T 1.34 | A 1.89 | V 1.24 | P 0.614 | E 1.62
Y29: N 0.582 | E 0.087 | T 0.658 | R 0.806 | K 0.669 | L 1.87 | D -0.065 | F 2.11 | P 0.516 | Q 0.374 | M 1.26 | I 0.716 | S 0.482 | V 0.558 | W 1.67 | A 0.547 | G 0.581 | H 1.31
A22: Q 0.388 | K 0.531 | E -0.139 | L 1.47 | H 0.262 | S 0.584 | G 0.327 | R 0.612 | T 0.394 | D -0.543 | P -0.681 | I 1.48 | V 1.34 | W 1.24 | F 1.08 | N 0.115 | M 1.07 | Y 0.937
L31: A 1.56 | F 1.49 | N 0.271 | Y 1.31 | R 0.613 | K 0.541 | G 1.66 | M 2.18 | W 1.26 | V 1.08 | Q 0.409 | P -0.519 | T 1.06 | D -0.096 | I 1.05 | H 0.811 | E 0.002 | S 0.893
Y21: R 0.268 | Q -0.123 | C 2.04 | G -0.676 | D -0.407 | F 2.36 | T 0.282 | E -0.031 | S -0.364 | K -0.234 | W 2.22 | L 1.15 | H 0.523 | A 0.651 | V 0.867 | I 0.827 | N -0.383 | P -0.648 | M 0.885
